The values that follow come from article PMC7619307, “The Golgi vesicle tether p115 can bind directly to the ER exit site organiser Sec16A” (Journal of cell science, 2026).

The experiment has as its target T1, FLAG-tagged p115 head domain (1–655) (human, UniProt O60763 1-655).
T1 sequence (looked up): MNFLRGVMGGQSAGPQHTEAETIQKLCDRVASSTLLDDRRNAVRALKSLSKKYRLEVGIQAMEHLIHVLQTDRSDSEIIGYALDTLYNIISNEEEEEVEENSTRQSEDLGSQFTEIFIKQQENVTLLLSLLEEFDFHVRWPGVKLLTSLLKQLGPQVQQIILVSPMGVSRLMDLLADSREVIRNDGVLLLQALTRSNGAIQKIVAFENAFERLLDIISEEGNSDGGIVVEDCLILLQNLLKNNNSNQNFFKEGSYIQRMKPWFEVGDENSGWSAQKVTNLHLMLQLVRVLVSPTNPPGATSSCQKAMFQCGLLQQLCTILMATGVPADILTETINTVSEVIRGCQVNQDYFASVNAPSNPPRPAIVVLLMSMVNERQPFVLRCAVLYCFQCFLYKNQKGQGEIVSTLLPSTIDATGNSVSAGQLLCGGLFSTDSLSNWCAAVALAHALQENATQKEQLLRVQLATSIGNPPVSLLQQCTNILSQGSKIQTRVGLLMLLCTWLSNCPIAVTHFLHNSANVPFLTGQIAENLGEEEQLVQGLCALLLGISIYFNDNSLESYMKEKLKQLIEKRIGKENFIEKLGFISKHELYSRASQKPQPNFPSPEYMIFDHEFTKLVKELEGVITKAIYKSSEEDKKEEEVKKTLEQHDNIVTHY
The experiment is described as follows: pull-down; direct binding assay: FLAG-tagged protein eluted from anti-FLAG beads (1 M NaCl wash, 3×FLAG peptide) was incubated for 1 h at 4°C with GFP-tagged protein held on GFP-Trap beads after harsh washes (1% SDS; 1 M NaCl, 1% Triton X-100); washes with 300 mM NaCl; immunoblot. As to conditions: both partners purified.

B1: Sec16A (650–776)–GFP (domain or fragment, human, UniProt O15027 650-776, looked up)
chain: ALPDASPGNLEQPPDNMETLCAPQVCPLPLNSTTEAVHMLPHAGAPPLDTVYPAPEKRPSARTQGPVKCESPATTLWAQSELPDFGGNVLLAPAAPALYVCAKPQPPVVQPPEEAMSGQQSRNPSSA
notes: source: HEK293T, transfected, in lysate (co-precipitation); not shown: GFP, C-terminal, kept
Take B1: the binding result is “binds”.
